From patent US10597674B2, “HPPD variants and methods of use” (BASF Agricultural Solutions Seed, US LLC, priority 2015, dated 2020) come the findings set out here.

Positions count from the first letter of the chain named. In names and notes the source's numbering stands.

Experiment [1] deals with transgenic T1 soybean events. The experiment in a line: Field trials of T1 soybean events, leaf damage eight days after application. Type of experiment: in vivo. How it is done: Soybean plants expressing an HPPD inhibitor tolerant polypeptide of the present invention alone, or along with a gene conferring tolerance to glyphosate and/or a gene conferring tolerance to glufosinate or having a “plant expression cassette”, which includes only an HPPD inhibitor tolerant polypeptide of the present invention, were tested for tolerance to different HPPD inhibitor herbicide chemical classes. The transgenic plants were routinely analyzed for the expression and presence of the transgenes using the ELISA protein detection method (see detailed description under item D and H). Only plants recovering in the selection media and having a detectable HPPD transgene protein expression were regenerated, transferred to the greenhouse and used at V2-V4 growth stage for the HPPD inhibitor herbicide tolerance analysis of the T0 soybean events in the greenhouse (Example 6). The chemical formulation with HPPD inhibitor herbicides was supplemented with ammonium sulfate and methyl ester rapeseed oil. Herbicide tolerance evaluation was taken 5-21 days after spraying. The best performing independent T0 soybean events were selfed to produce T1 soybean seeds. In the field trails, the advanced T1 soybean seeds were planted and treated with either 210 g/ha of isoxaflutole or 150 g/ha of Cmpd.
In Table 10, the frequency of the soybean events showing a good tolerance, i.e. equal or less than 15% damage of the total leaf area are summarized

Experiment [2] deals with E. coli cells expressing an HPPD polypeptide. The experiment in a line: Brown color bioassay in liquid culture, residual brown color formation (BCF), OD440 after 96 hours. The conditions noted are these: Cmpd. 1 1000 μM, 96 hours. Type of experiment: cell-based. Summed up: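 E. coli expressing HPPD variants were grown at 30 degrees Celsius from OD600 0.3-0.5 in LB with 5 mM HPP, with or without herbicide (e.g. Cmpd. 1, 1000 μM). After 96 hours, supernatant OD440 was measured; residual brown colour formation compares pigment with and without inhibitor.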

The subject of experiment [3] is HPPD polypeptides (wild-type SEQ ID NO:1 and mutants). The conditions noted are these: different HPPD inhibitor herbicide chemical classes.
For experiment [4], the system named is E. coli cells expressing an HPPD polypeptide. The experiment in a line: Brown Color Assay on solid LB-agar, visual score of brown pigment. In kind it is cell-based. On the set-up: key to brown pigment formation: +++: a dark brown coloring as seen for E. coli cells expressing one of the respective mutant HPPD polypeptide without inhibitor; ++: medium brown pigmentation; +: light brown pigmentation; 0: no brown pigmentation development was detected on the LB agar plates. Conditions: for brown coloring compared with SEQ ID NO: 2, in words: 25, 50, 100, 250 and 500 μM Cmpd. 1. How it is done: Mutant HPPD polypeptides were analyzed using a brown color assay (WO2014/043435). Bacterial cells expressing the mutant HPPD polypeptide according to the invention were assayed in 96 well format for HPPD inhibitor tolerance by spotting on solid media containing LB-agar, selection agent for the expression vector pSE420(RI)NX (WO2014/043435), 5 mM tyrosine (Sigma-Aldrich, St. Louis, USA), 42 mM succinate (Sigma-Aldrich, St. Louis, USA) and six different concentrations of the HPPD inhibitor herbicide Cmpd. 1 (0-500 μM). In the brown color assay, an overnight culture of the E. coli cells expressing one of the respective mutant HPPD polypeptides were diluted to an OD600 of 1 and 10 μl extract was spotted in triplicates on plates containing 0, 25, 50, 100, 250, or 500 μM of Cmpd. 1. Plates were covered with airpore tape and incubated at 30 degrees C. After 24 hours, the cells were kept in darkness at room temperature and after 7 days the brown pigment formation was scored visually. In the presence of an HPPD inhibitor herbicide, this pigment formation is inhibited and the color of the agar plate will not alter, unless an HPPD inhibitor herbicide tolerant HPPD polypeptide is expressed and active. […] The “++” and “+” scores a medium and light brown pigmentation, respectively, and the “0” means that no brown pigmentation development was detected on the LB agar plates.

Experiment [5] concerns transgenic soybean T0 events. The experiment in a line: Additional greenhouse trials of T0 soybean events, leaf damage score 0-100 as percentiles. In kind it is in vivo. Conditions: Cmpd. 1 300 g AI/ha, five days. An excerpt: In additional greenhouse trials, 21 to 94 independent T0 soybean events per construct containing an exemplary mutant HPPD polypeptide were sprayed with the HPPD inhibitor herbicide Cmpd. […] Five days after the application, the leaf damaged area due to the HPPD inhibitor herbicide is scored in a scale from 0 (no damage) to 100 (complete bleaching). Under those conditions, the wild-type plants were completely bleached and their damage scores were in the 95-100 range.
Table 9 presents the distribution of the HPPD inhibitor herbicide damage score data as percentile for exemplary mutant HPPD inhibitor herbicide tolerant polypeptides (SEQ ID NOs). The percentiles normalize ranks of the damage score from an individual plant in a population. […] The median is the 50th percentile. Half the values had higher damage scores; half had lower damage scores. […] The difference between the 75th and 25th percentile is called the interquartile range and a marker to quantify scattering in the population. All constructs had only one single cassette insertion in the soybean genome.
In Table 9, the constructs were ranked based on injury scores according to the 75th percentile, from smallest to highest score. All exemplary HPPD polypeptide variants are better in all percentile analyses than the prior art mutant HPPD polypeptide (WO2014/043435) corresponding to SEQ ID NO:2 in this invention. The scoring of the prior art mutant HPPD polypeptide (WO2014/043435) corresponding to SEQ ID NO:2 in this invention is listed in the bottom row of Table 9.

[6] abbreviates: 25 μM Cmpd. 1, scored after 7 days.
Setting [7] is: 50 μM Cmpd. 1, scored after 7 days.
The mark [8] stands for this setting: 100 μM Cmpd. 1, scored after 7 days.
Setting [9] is: 250 μM Cmpd. 1, scored after 7 days.
Where [10] appears, read: 500 μM Cmpd. 1, scored after 7 days.
Setting [11] is: 150 g/ha Cmpd. 1, stage V2-V4, eight days after application.
The mark [12] stands for this setting: 210 g/ha isoxaflutole, stage V2-V4, eight days after application.

Regarding `CS(=O)(=O)c1cc(C(F)(F)F)ccc1C(=O)c1cnoc1C1CC1` [isoxaflutole, (5-cyclopropyl-4-isoxazolyl)[2-(methylsulfonyl)-4-(trifluoromethyl)phenyl]methanone, reference compound], the leaf damage in experiment [1] (wild-type or segregated T1 soybean plants without tolerant polypeptide, 210 g/ha isoxaflutole or 150 g/ha Cmpd. 1, eight days) stood at 100%.

B1: SEQ ID NO:1 (protein, listed as Pseudomonas fluorescens)
chain: MADLYENPMGLMGFEFIEFASPTPGTLEPIFEIMGFTKVATHRSKNVHLYRQGEINLILNNEPNSIASYFAAEHGPSVCGMAFRVKDSQKAYNRALELGAQPIHIDTGPMELNLPAIKGIGGAPLYLIDRFGEGSSIYDIDFVYLEGVERNPVGAGLKVIDHLTHNVYRGRMVYWANFYEKLFNFREARYFDIKGEYTGLTSKAMSAPDGMIRIPLNEESSKGAGQIEEFLMQFNGEGIQHVAFLTDDLVKTWDALKKIGMRFMTAPPDTYYEMLEGRLPDHGEPVDQLQARGILLDGSSVEGDKRLLLQIFSETLMGPVFFEFIQRKGDDGFGEGNFKALFESIERDQVRRGVLTAD
modifications: 4-hydroxyphenylpyruvate dioxygenase (HPPD; Pseudomonas fluorescens) (1)..(358)
As to B1, in experiment [2], the “brown pigmentation in the presence of the HPPD inhibitor, in words” value is given as “did not produce a substantial brown pigmentation”. In experiment [3], the “character of inhibition by HPPD inhibitor herbicides (time-course)” value was “slow and tight binding inhibitor”. The “brown pigmentation, in words” value in experiment [4] (25 μM Cmpd. 1) is reported as “do not produce any brown pigmentation”.

B2: SEQ ID NO:104 (protein)
chain: B1 chain with R213K, M264L, P268G, T270E, E335P, G336H, N337S, A340V, S344Q, I345M
modifications: mutant HPPD polypeptide
Take B2: the “brown coloring compared with SEQ ID NO: 2, in words” value in experiment [4] was “stronger brown coloring”.

B3: SEQ ID NO: 104: mutant HPPD polypeptide: R213K M264L P268G T270E E335P G336H N337S A340V S344Q I345M (protein)
chain: B1 chain with R213K, M264L, P268G, T270E, E335P, G336H, N337S, A340V, S344Q, I345M
modifications: mutant HPPD polypeptide
notes: mutant HPPD polypeptide: R213K M264L P268G T270E E335P G336H N337S A340V S344Q I345M
Turning to B3, in experiment [5] (75th minus 25th percentile), the “leaf damage score, Interquartile range” value is recorded as 15.0. For the same molecule, the “leaf damage score, 25th percentile” value in experiment [5] (scale 0 (no damage) to 100 (complete bleaching)) was 5.0. Further, the “leaf damage score, 75th percentile” value in experiment [5] (scale 0-100) stood at 20.0. Also, the “leaf damage score, 90th percentile” value in experiment [5] (scale 0-100) worked out at 72.5. Further, the “leaf damage score, Median” value in experiment [5] (scale 0-100) worked out at 15.0. In addition, the brown pigment formation entry in experiment [4] (setting [6]) is recorded as “+++”; in experiment [4] (setting [7]) it was “+++”; in experiment [4] (setting [8]), “+++”; in experiment [4] (setting [9]) it was “++”; in experiment [4] (setting [10]), “++”.

B4: SEQ ID NO: 1: reference wild-type Pseudomonas fluorescens HPPD polypeptide (protein, listed as Pseudomonas fluorescens)
chain: B1 chain
modifications: 4-hydroxyphenylpyruvate dioxygenase (HPPD; Pseudomonas fluorescens) (1)..(358)
For B4, the brown pigment formation in experiment [4] (setting [6]), in experiment [4] (setting [7]), in experiment [4] (setting [8]), in experiment [4] (setting [9]) and in experiment [4] (setting [10]) was 0 throughout.

B5: 32 (protein)
chain: B1 chain with P268R, T270E, E335P, G336H, N337S, A340V, I345V
modifications: mutant HPPD polypeptide
For the molecule B5, the “brown coloring compared with SEQ ID NO: 2, in words” value in experiment [4] is “stronger brown coloring”.

B6: 96 (protein)
chain: B1 chain with R213K, P268G, T270E, E335P, G336H, N337S, A340V, I345V
modifications: mutant HPPD polypeptide
Regarding B6, the “brown coloring compared with SEQ ID NO: 2, in words” value in experiment [4] is given as “stronger brown coloring”.

B7: SEQ ID NO: 16: mutant HPPD polypeptide: P268S T270S E335P G336D N337S A340V I345K (protein)
chain: B1 chain with P268S, T270S, E335P, G336D, N337S, A340V, I345K
modifications: mutant HPPD polypeptide
notes: mutant HPPD polypeptide: P268S T270S E335P G336D N337S A340V I345K
As for B7, in experiment [1] (setting [11]), the “Frequency in the population (events with ≤15% leaf damage)” value is recorded as 95% and the “Independent events with ≤15% leaf damage after spray” value amounted to 19. For the same molecule, in experiment [1] (setting [12]), the “Frequency in the population (events with ≤15% leaf damage)” value worked out at 95% and the “Independent events with ≤15% leaf damage after spray” value amounted to 19.

B8: SEQ ID NO: 103 (protein)
chain: MADLYENPMGLMGFEFIEFASPTPGTLEPIFEIMGFTKVATHRSKNVHLYRQGEINLILNNEPNSIASYFAAEHGPSVCGMAFRVKDSQKAYNRALELGAQPIHIDTGPMELNLPAIKGIGGAPLYLIDRFGEGSSIYDIDFVYLEGVERNPVGAGLKVIDHLTHNVYRGRMVYWANFYEKLFNFREARYFDIKGEYTGLTSKAMSAPDGMIKIPLNEESSKGAGQIEEFLMQFNGEGIQHVAFLTDDLVKTWDALKKIGMRFLTAPGDEYYEMLEGRLPDHGEPVDQLQARGILLDGSSVEGDKRLLLQIFSERLMGPVFFEFIQRKGDDGFGPHSFKVLFEQMERDQVRRGVLTAD
modifications: mutant HPPD polypeptide
With B8, the brown pigment formation result in experiment [4] (setting [6]) is “++”; in experiment [4] (setting [7]), “++”; in experiment [4] (setting [8]) it was “++”; in experiment [4] (setting [9]), “+”; in experiment [4] (setting [10]), 0.
